Source: US20120258041A1 (published 2012)

B1: mouse monoclonal antibody 5D2 (antibody, V domains shown)
VH: EVQLQQSGPELVKPGASVKISCKASGYTFTDNYYMNWVKQSHGKSLEWIGHIYPNNGVTSYNQKFRGKATLTVDKSSNSAYMELRSLTSEDSALYYCARNKLLSLYWYFDVWGTGTSVTVSS
VL: DIQMTQSSSSFSVFLGDRITITCRASVDIYNRLAWFQQKPGNAPRLLISGATSLATGVPSRFSGSGSGKDYTLSITSLQTEDVTIYYCQQYWSTPWTFGGGTKLEIKR

Legend:
human iC3b (human) = human iC3b (human) (UniProt P01024); test: sandwich ELISA: chicken anti-C3 capture antibody, captured antigen, A209 as detecting antibody, goat anti-mouse-HRP, ABTS
Sequence of human iC3b (human) (P01024 23-667 limits assumed, chain 1 of 3): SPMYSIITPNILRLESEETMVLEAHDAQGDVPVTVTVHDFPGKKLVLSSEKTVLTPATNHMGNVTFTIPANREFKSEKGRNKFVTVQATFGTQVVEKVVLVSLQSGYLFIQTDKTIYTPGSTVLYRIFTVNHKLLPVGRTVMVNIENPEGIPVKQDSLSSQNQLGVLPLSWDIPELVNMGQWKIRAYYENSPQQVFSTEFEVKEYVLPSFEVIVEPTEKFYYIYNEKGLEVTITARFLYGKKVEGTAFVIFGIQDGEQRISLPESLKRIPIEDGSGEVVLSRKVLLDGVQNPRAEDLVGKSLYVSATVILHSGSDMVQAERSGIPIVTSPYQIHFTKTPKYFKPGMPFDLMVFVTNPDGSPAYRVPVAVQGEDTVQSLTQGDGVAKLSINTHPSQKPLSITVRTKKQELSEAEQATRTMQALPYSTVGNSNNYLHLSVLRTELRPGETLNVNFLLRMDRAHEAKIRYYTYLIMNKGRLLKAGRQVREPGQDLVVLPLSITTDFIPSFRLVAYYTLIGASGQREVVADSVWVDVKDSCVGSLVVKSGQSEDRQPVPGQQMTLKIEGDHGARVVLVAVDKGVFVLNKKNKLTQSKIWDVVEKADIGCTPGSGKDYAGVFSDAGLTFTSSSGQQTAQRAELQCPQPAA
Sequence of human iC3b (human) (P01024 749-1303 limits assumed, chain 2 of 3): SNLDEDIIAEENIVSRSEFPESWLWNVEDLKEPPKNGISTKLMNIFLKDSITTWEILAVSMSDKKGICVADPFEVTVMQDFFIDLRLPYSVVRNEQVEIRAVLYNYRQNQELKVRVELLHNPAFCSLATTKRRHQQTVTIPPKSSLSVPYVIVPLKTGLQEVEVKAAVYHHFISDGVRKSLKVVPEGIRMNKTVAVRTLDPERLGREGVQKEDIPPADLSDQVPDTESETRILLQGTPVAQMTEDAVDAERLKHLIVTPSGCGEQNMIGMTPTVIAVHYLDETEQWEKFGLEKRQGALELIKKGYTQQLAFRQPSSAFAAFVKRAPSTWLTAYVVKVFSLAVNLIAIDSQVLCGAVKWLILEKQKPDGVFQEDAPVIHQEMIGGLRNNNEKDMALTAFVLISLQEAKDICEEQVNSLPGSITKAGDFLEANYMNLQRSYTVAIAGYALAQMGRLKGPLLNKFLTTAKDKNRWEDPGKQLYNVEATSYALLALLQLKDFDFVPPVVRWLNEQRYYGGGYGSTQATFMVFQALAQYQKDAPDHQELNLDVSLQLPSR
Sequence of human iC3b (human) (P01024 1321-1663 limits assumed, chain 3 of 3): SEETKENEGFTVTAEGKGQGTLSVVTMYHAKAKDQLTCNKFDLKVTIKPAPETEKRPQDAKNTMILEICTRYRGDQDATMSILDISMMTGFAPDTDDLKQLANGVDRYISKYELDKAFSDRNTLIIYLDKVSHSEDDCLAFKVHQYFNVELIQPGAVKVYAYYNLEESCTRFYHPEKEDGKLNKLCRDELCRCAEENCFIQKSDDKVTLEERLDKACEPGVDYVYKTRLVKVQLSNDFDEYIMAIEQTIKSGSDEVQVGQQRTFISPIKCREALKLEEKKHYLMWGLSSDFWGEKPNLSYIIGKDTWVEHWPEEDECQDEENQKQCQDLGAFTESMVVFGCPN

murine iC3b = target: T1, murine iC3b (mouse, UniProt P01027 25-1663, limits assumed); test: sandwich ELISA: rat mAb 2/11 (anti-mouse C3b/iC3b/C3c) capture, mouse serum 1:25 as antigen source, biotinylated antibody, streptavidin-HRP, ABTS, read at 405 nm
T1 construct: Native material from a mixture of two mouse sera; the capture antibody also takes C3b and C3c; also called mouse iC3b
T1 sequence (P01027 25-1663 limits assumed): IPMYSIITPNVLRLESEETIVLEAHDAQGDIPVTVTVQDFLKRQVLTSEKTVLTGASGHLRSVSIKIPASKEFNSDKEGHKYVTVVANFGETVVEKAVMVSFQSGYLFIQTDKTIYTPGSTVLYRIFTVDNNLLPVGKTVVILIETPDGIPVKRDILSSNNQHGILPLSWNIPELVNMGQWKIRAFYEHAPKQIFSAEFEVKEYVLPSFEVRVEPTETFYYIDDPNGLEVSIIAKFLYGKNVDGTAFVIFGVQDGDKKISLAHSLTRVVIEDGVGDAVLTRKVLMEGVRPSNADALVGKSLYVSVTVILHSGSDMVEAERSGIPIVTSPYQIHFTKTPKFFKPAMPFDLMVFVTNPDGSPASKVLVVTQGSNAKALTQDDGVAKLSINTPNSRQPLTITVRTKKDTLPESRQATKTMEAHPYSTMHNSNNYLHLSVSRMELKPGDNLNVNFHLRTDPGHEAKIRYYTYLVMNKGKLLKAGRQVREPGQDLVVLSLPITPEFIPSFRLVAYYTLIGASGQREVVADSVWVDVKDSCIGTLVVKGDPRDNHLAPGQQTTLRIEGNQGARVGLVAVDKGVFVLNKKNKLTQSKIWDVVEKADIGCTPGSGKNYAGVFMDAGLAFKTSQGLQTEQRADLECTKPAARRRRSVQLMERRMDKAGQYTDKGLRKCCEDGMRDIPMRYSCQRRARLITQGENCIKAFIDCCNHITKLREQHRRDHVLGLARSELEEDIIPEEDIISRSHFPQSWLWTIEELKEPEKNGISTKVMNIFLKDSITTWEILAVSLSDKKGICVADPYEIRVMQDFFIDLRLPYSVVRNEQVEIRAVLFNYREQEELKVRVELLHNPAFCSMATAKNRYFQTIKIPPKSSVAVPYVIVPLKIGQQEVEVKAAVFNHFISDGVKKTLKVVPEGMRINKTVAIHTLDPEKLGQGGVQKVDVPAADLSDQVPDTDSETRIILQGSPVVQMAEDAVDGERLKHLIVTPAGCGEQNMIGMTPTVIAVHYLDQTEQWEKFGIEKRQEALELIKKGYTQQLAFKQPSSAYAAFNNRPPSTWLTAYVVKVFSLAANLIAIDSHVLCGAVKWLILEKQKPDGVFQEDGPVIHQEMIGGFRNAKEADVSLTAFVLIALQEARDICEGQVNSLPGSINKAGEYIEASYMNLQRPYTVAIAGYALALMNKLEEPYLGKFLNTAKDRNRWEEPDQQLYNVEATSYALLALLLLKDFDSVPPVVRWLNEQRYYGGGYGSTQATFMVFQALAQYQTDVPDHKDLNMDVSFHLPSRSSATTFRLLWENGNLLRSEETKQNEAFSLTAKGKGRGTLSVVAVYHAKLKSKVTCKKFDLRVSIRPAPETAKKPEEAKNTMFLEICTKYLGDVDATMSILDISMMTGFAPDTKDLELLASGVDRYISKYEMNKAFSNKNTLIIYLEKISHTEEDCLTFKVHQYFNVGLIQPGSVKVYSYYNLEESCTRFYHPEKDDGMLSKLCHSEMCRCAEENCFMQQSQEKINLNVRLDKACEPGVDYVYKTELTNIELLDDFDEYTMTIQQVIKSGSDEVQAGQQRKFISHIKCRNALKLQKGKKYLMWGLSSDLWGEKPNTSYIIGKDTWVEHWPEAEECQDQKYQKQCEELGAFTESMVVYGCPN

Molecule | EC50 (read off the curve) (human iC3b (human)) [µg/mL] | EC50 (read off the curve) (murine iC3b) [nM]
A209 antibody (Quidel), mouse anti-human iC3b monoclonal antibody | 0.03 | –
B1 | – | ~20
